B1: monoclonal antibody of hybridoma 7D2-E3 (antibody, from another filing, IgG2a)
scFv: QVQLQQSGPELVKPGASVKMSCKASGYTFANHVIHWVKQKPGQGLEWIGYIYPYNDGTKYNEKFKDKATLTSDKSSTTAYMDLSSLASEDSAVYYCARGGYYTYDDWGQGTTLTVSSGGGGSGGGGSGGGGSDVVMTQSPLSLPVSLGDQASISCRSSQSLVHSNGKTYLHWYLQKPGQSPKLLIYKVSNRFSGVPDRFSGSGSVTDFTLMISRVEAEDLGVYFCSQSTHVPYTFGGGTKLEIKDYKDDDDK

Experiments:
[1] = target: human Integrin Associated Protein (IAP) (human) (UniProt Q08722); test: cell ELISA on PLP-fixed CF-1 cells expressing human IAP, antibody at 3 µg/ml
Chain of UniProt Q08722 (Q08722 19-323): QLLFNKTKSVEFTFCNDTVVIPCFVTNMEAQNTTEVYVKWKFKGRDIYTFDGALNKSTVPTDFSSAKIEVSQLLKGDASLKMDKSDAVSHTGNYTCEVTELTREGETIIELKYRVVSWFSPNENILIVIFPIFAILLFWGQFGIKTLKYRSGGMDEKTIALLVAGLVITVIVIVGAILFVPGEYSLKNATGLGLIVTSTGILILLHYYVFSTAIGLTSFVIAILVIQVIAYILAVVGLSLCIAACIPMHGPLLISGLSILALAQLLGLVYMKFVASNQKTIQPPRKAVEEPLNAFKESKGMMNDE

[2] = target: human Integrin Associated Protein (IAP) (human) (UniProt Q08722); test: cell ELISA, CF1-hIAP-55-8 minus CF1-pCOS1, antibody at 3 µg/ml
[3] = target: human Integrin Associated Protein (IAP) (human) (UniProt Q08722); test: cell ELISA, CF1-hIAP-55-8 minus CF1-pCOS1, hybridoma culture supernatant
[4] = target: human Integrin Associated Protein (IAP) (human) (UniProt Q08722); test: cell-based or functional assay
[5] = target: human Integrin Associated Protein (IAP) (human) (UniProt Q08722); test: cell ELISA on PLP-fixed CF-1 cells expressing human IAP, hybridoma culture supernatant

Molecule | absorbance in ELISA (raw data, CF1-hIAP-55-8) [1] [absorbance] | Specific binding (absorbance, CF1-pCOS1 subtracted) [2] [absorbance] | Specific binding (absorbance, CF1-pCOS1 subtracted) [3] [absorbance] | percentage (%) of apoptosis of Jurkat cells, PI staining, flow cytometry (8G2 control supernatant 7.43%) [4] [%] | absorbance in ELISA (raw data, CF1-hIAP-55-8) [5] [absorbance]
human IAP-recognizing anti-CD47 antibody (PharMingen) | 0.456 | 0.296 |  |  | 
B1 |  |  | 0.379 | 9.84 | 0.568
